Data on one protein can be found in US20260217779.

Positions count from the first letter of the chain named.

The target in data set [1] is T1, hCXCL11.0022-G1T4k.one//VHn-G1T4h.one.H435R.
T1 chain 1: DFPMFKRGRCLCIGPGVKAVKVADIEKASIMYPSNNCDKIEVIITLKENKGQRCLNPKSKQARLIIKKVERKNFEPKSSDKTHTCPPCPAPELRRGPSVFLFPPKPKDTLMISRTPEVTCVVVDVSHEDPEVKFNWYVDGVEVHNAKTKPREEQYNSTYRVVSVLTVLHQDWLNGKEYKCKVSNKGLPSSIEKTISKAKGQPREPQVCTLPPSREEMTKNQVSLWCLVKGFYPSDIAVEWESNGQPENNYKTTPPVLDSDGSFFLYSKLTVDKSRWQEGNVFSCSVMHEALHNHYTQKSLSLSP
T1 chain 2: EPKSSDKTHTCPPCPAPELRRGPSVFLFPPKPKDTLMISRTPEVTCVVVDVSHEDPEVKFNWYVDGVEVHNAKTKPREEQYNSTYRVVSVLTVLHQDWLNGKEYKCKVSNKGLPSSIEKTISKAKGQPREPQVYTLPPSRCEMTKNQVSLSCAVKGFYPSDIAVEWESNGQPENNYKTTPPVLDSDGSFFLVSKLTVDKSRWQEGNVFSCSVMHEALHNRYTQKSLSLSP

Data set [2] has as its target T2, hCXCL11.0033-G1T4k.one//VHn-G1T4h.one.H435R.
T2 chain 1: T1 chain 1 with D1Q
T2 chain 2: T1 chain 2

The target in data set [3] is T3, hCXCL11.0037-G1T4k.one//VHn-G1T4h.one.H435R.
T3 chain 1: T1 chain 1 with D1V
T3 chain 2: T1 chain 2

For data set [4], the target named is T4, hITIP0021-G1T4k.one//VHn-G1T4h.one.H435R.
T4 chain 1: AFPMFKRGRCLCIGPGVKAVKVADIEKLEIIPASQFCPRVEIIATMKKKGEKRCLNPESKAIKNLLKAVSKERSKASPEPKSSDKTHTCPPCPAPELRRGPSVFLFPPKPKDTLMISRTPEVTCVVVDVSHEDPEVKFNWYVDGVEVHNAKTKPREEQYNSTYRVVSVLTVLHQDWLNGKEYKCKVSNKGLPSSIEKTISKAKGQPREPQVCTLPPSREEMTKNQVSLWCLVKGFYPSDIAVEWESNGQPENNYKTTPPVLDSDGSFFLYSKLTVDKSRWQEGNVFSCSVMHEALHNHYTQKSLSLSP
T4 chain 2: T1 chain 2

For data set [5], the target named is T5, hITIP0022-G1T4k.one//VHn-G1T4h.one.H435R.
T5 chain 1: T4 chain 1 with A1D
T5 chain 2: T1 chain 2

Data set [6] deals with T6, hITIP0025-G1T4k.one//VHn-G1T4h.one.H435R.
T6 chain 1: T4 chain 1 with A1G
T6 chain 2: T1 chain 2

Data set [7] addresses T7, hITIP0036-G1T4k.one//VHn-G1T4h.one.H435R.
T7 chain 1: T4 chain 1 with A1T
T7 chain 2: T1 chain 2

The target of data set [8] is T8, hITIP0037-G1T4k.one//VHn-G1T4h.one.H435R.
T8 chain 1: T4 chain 1 with A1V
T8 chain 2: T1 chain 2

B1: human dipeptidyl peptidase IV (human DPPIV, hDPPIV) (Biolegend, 764102) (protein)
chain: NKGTDDATADSRKTYTLTDYLKNTYRLKLYSLRWISDHEYLYKQENNILVFNAEYGNSSVFLENSTFDEFGHSINDYSISPDGQFILLEYNYVKQWRHSYTASYDIYDLNKRQLITEERIPNNTQWVTWSPVGHKLAYVWNNDIYVKIEPNLPSYRITWTGKEDIIYNGITDWVYEEEVFSAYSALWWSPNGTFLAYAQFNDTEVPLIEYSFYSDESLQYPKTVRVPYPKAGAVNPTVKFFVVNTDSLSSVTNATSIQITAPASMLIGDHYLCDVTWATQERISLQWLRRIQNYSVMDICDYDESSGRWNCLVARQHIEMSTTGWVGRFRPSEPHFTLDGNSFYKIISNEEGYRHICYFQIDKKDCTFITKGTWEVIGIEALTSDYLYYISNEYKGMPGGRNLYKIQLSDYTKVTCLSCELNPERCQYYSVSFSKEAKYYQLRCSGPGLPLYTLHSSVNDKGLRVLEDNSALDKMLQNVQMPSKKLDFIILNETKFWYQMILPPHFDKSKKYPLLLDVYAGPCSQKADTVFRLNWATYLASTENIIVASFDGRGSGYQGDKIMHAINRRLGTFEVEDQIEAARQFSKMGFVDNKRIAIWGWSYGGYVTSMVLGSGSGVFKCGIAVAPVSRWEYYDSVYTERYMGLPTPEDNLDHYRNSTVMSRAENFKQVEYLLIHGTADDNVHFQQSAQISKALVDVGVDFQAMWYTDEDHGIASSTAHQHIYTHMSHFIKQCFSLP
As for B1, the “cleavage by hDPPIV (LC/MS mass)” value in data set [1], in data set [2], in data set [3], in data set [4], in data set [5] and in data set [6] was “showed no mass change suggestive of peptide bond cleavage by hDPPIV treatment” throughout. In addition, the “cleavage by hDPPIV (LC/MS mass)” value in data set [7] and in data set [8] was “showed no mass change suggestive of peptide bond cleavage by hDPPIV treatment” each time.
